# Measurements published in the supplement of paper PMC11246515.
# ± gives the standard deviation of the averaged measurements.
# Assay: total protein half-life in vivo (active degradation + dilution); higher = more stable protein
# [1] = E. coli NCM3722 delta-clpP delta-lon delta-hslV, growth: N-lim chemostat, doubling time 6 h
# [2] = E. coli NCM3722 delta-clpP, growth: N-lim chemostat, doubling time 6 h
# [3] = E. coli NCM3722 delta-hslV, growth: N-lim chemostat, doubling time 6 h
# [4] = E. coli NCM3722 delta-lon, growth: N-lim chemostat, doubling time 6 h
# [5] = E. coli NCM3722 delta-smpB, growth: N-lim chemostat, doubling time 6 h
# [6] = wild type E. coli NCM3722, growth: C-lim chemostat, doubling time 3 h
# [7] = wild type E. coli NCM3722, growth: C-lim chemostat, doubling time 6 h
# [8] = wild type E. coli NCM3722, growth: C-lim chemostat, doubling time 12 h
# [9] = wild type E. coli NCM3722, growth: N-lim chemostat, doubling time 6 h
# [10] = wild type E. coli NCM3722, growth: N-lim chemostat, doubling time 12 h
# [11] = wild type E. coli NCM3722, growth: P-lim chemostat, doubling time 6 h
# [12] = wild type E. coli NCM3722, growth: P-lim chemostat, doubling time 12 h
Sequence,total protein half-life in vivo [1],total protein half-life in vivo [2],total protein half-life in vivo [3],total protein half-life in vivo [4],total protein half-life in vivo [5],total protein half-life in vivo [6],total protein half-life in vivo [7],total protein half-life in vivo [8],total protein half-life in vivo [9],total protein half-life in vivo [10],total protein half-life in vivo [11],total protein half-life in vivo [12]
MSVVPVADVLQGRVAVDSEVTVRGWVRTRRDSKAGISFLAVYDGSCFDPVQAVINNSLPNYNEDVLRLTTGCSVIVTGKVVASPGQGQQFEIQASKVEVAGWVEDPDTYPMAAKRHSIEYLREVAHLRPRTNLIGAVARVRHTLAQALHRFFNEQGFFWVSTPLITASDTEGAGEMFRVSTLDLENLPRNDQGKVDFDKDFFGKESFLTVSGQLNGETYACALSKIYTFGPTFRAENSNTSRHLAEFWMLEPEVAFANLNDIAGLAEAMLKYVFKAVLEERADDMKFFAERVDKDAVSRLERFIEADFAQVDYTDAVTILENCGRKFENPVYWGVDLSSEHERYLAEEHFKAPVVVKNYPKDIKAFYMRLNEDGKTVAAMDVLAPGIGEIIGGSQREERLDVLDERMLEMGLNKEDYWWYRDLRRYGTVPHSGFGLGFERLIAYVTGVQNVRDVIPFPRTPRNASF [P0A8M0],5.93 ± 0.36 h,5.65 ± 0.14 h,5.29 ± 0.32 h,6.11 ± 0.23 h,5.45 ± 0.33 h,3.23 ± 0.51 h,6.37 ± 0.33 h,11.55 ± 0.055 h,5.338 ± 0.0091 h,9.553 ± 0.028 h,6.83 ± 0.74 h,12.9 ± 0.18 h
MSWIERIKSNITPTRKASIPEGVWTKCDSCGQVLYRAELERNLEVCPKCDHHMRMTARNRLHSLLDEGSLVELGSELEPKDVLKFRDSKKYKDRLASAQKETGEKDALVVMKGTLYGMPVVAAAFEFAFMGGSMGSVVGARFVRAVEQALEDNCPLICFSASGGARMQEALMSLMQMAKTSAALAKMQERGLPYISVLTDPTMGGVSASFAMLGDLNIAEPKALIGFAGPRVIEQTVREKLPPGFQRSEFLIEKGAIDMIVRRPEMRLKLASILAKLMNLPAPNPEAPREGVVVPPVPDQEPEA [P0A9Q5],5.95 ± 0.21 h,6.46 ± 0.77 h,6.167 ± 0.012 h,5.92 ± 0.97 h,5.66 ± 0.42 h,3.03 ± 0.31 h,6.15 ± 0.42 h,11.2 ± 0.44 h,6.06 ± 0.44 h,12.1 ± 0.061 h,5.81 ± 0.093 h,12.3 ± 0.26 h
MSYQPQTEAATSRFLNVEEAGKTLRIHFNDCGQGDETVVLLHGSGPGATGWANFSRNIDPLVEAGYRVILLDCPGWGKSDSVVNSGSRSDLNARILKSVVDQLDIAKIHLLGNSMGGHSSVAFTLKWPERVGKLVLMGGGTGGMSLFTPMPTEGIKRLNQLYRQPTIENLKLMMDIFVFDTSDLTDALFEARLNNMLSRRDHLENFVKSLEANPKQFPDFGPRLAEIKAQTLIVWGRNDRFVPMDAGLRLLSGIAGSELHIFRDCGHWAQWEHADAFNQLVLNFLARP,5.3 ± 0.56 h,2.05 ± 0.77 h,2.34 ± 0.87 h,2.71 h,2.32 ± 0.21 h,1.42 ± 0.3 h,2.67 ± 0.065 h,4.07 h,1.93 h,3.13 h,3.21 h,5.69 ± 1.3 h
MSYSNILVAVAVTPESQQLLAKAVSIARPVKGHISLITLASDPEMYNQLAAPMLEDLRSVMHEETQSFLDKLIQDAGYPVDKTFIAYGELSEHILEVCHKHHFDLVICGNHNHSFFSRASCSAKRVIASSEVDVLLVPLTGD,4.56 ± 0.81 h,3.97 h,4.06 h,4.66 ± 0.43 h,3.93 ± 0.25 h,3.26 ± 0.33 h,3.71 h,9.83 ± 3.1 h,4.07 h,6.65 h,5.2 h,11.8 ± 1.2 h
MSYTPMSDLGQQGLFDITRTLLQQPDLASLCEALSQLVKRSALADNAAIVLWQAQTQRASYYASREKDTPIKYEDETVLAHGPVRSILSRPDTLHCSYEEFCETWPQLDAGGLYPKFGHYCLMPLAAEGHIFGGCEFIRYDDRPWSEKEFNRLQTFTQIVSVVTEQIQSRVVNNVDYELLCRERDNFRILVAITNAVLSRLDMDELVSEVAKEIHYYFDIDDISIVLRSHRKNKLNIYSTHYLDKQHPAHEQSEVDEAGTLTERVFKSKEMLLINLHERDDLAPYERMLFDTWGNQIQTLCLLPLMSGDTMLGVLKLAQCEEKVFTTTNLNLLRQIAERVAIAVDNALAYQEIHRLKERLVDENLALTEQLNNVDSEFGEIIGRSEAMYSVLKQVEMVAQSDSTVLILGETGTGKELIARAIHNLSGRNNRRMVKMNCAAMPAGLLESDLFGHERGAFTGASAQRIGRFELADKSSLFLDEVGDMPLELQPKLLRVLQEQEFERLGSNKIIQTDVRLIAATNRDLKKMVADREFRSDLYYRLNVFPIHLPPLRERPEDIPLLAKAFTFKIARRLGRNIDSIPAETLRTLSNMEWPGNVRELENVIERAVLLTRGNVLQLSLPDIVLPEPETPPAATVVALEGEDEYQLIVRVLKETNGVVAGPKGAAQRLGLKRTTLLSRMKRLGIDKSALI,6.33 ± 0.39 h,4.33 ± 0.27 h,3.33 ± 0.097 h,5.42 ± 0.29 h,3.22 ± 0.57 h,2.4 ± 0.24 h,5.33 ± 1.1 h,7.11 ± 0.98 h,3.48 ± 0.2 h,8.1 ± 4.8 h,2.84 h,5.132 ± 0.02 h
